Laboratory results taken from PMC4229625.

Target: GST-Ana2 phosphorylated by active Plk4 (MBP-Plk4) (Drosophila) (UniProt Q9XZ31)
Assay: pull-down; recombinant GST-Ana2 (or its fragments or mutants) on beads, incubated with active MBP-Plk4 or inactive MBP-Plk4^KD, then with ^35S-Met-labeled proteins made by in vitro transcription and translation; SDS-PAGE and autoradiography

Chain of UniProt Q9XZ31 (Q9XZ31 entry or part of it): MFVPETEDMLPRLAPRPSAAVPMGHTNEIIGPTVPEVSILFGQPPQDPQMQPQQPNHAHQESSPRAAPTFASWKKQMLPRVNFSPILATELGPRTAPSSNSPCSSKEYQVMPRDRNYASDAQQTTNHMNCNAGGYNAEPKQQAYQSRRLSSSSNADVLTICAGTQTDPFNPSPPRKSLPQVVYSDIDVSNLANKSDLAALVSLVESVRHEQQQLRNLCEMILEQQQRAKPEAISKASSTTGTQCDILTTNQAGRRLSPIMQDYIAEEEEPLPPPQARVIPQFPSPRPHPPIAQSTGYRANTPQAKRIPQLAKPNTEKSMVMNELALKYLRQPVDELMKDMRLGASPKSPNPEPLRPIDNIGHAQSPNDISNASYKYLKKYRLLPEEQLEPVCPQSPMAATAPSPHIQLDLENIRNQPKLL

Substance: ^35S-Met-labeled Bld10 (natural protein)
- fold increase of binding against Ana2 treated with inactive Plk4: 3.5 fold
